Test results reported in publication PMC7821230.

Molecular target: BCL‐xL (UniProt Q07817)
Assay: crystal structure; co-crystals of Affimer and target, solved by molecular replacement with Phaser

“BCL‐xL (from UniProt Q07817-1 1-233) (natural protein)” was tested, and the stoichiometry N was 2.
